Laboratory results: IntAct's records for PubMed 17159996

B1: Tyrosine-protein phosphatase non-receptor type 1 (Homo sapiens), P18031 (parent)
chain: MEMEKEFEQIDKSGSWAAIYQDIRHEASDFPCRVAKLPKNKNRNRYRDVSPFDHSRIKLHQEDNDYINASLIKMEEAQRSYILTQGPLPNTCGHFWEMVWEQKSRGVVMLNRVMEKGSLKCAQYWPQKEEKEMIFEDTNLKLTLISEDIKSYYTVRQLELENLTTQETREILHFHYTTWPDFGVPESPASFLNFLFKVRESGSLSPEHGPVVVHCSAGIGRSGTFCLADTCLLLMDKRKDPSSVDIKKVLLEMRKFRMGLIQTADQLRFSYLAVIEGAKFIMGDSSVQDQWKELSHEDLEPPPEHIPPPPRPPKRILEPHNGKCREFFPNHQWVKEETQEDKDCPIKEEKGSPLNAAPYGIESMSQDTEVRSRVVGGSLRGAQAASPAKGEPSLPEKDEDHALSYWKPFLVNMCVATVLTAGAYLCYRFLFNSNT

Variants of: B1
Details: with insr_human INSR

| Variant | effect of a mutation on the interaction |
| --- | --- |
| MEMEKEFEQIDKSGSWAAIYQDIRHEASDFPCRVAKLPKNKNRNRYRDVSPFDHSRIKLHQEDNDYINASLIRMEEAQRSYILTQGPLPNTCGHFWEMVWEQKSRGVVMLNRVMEKGSLKCAQYWPQKEEKEMIFEDTNLKLTLISEDIKSYYTVRQLELENLTTQETREILHFHYTTWPDFGVPESPASFLNFLFKVRESGSLSPEHGPVVVHCSAGIGRSGTFCLADTCLLLMDKRKDPSSVDIKKVLLEMRKFRMGLIQTADQLRFSYLAVIEGAKFIMGDSSVQDQWKELSHEDLEPPPEHIPPPPRPPKRILEPHNGKCREFFPNHQWVREETQEDKDCPIREEKGSPLNAAPYGIESMSQDTEVRSRVVGGSLRGAQAASPARGEPSLPEKDEDHALSYWKPFLVNMCVATVLTAGAYLCYRFLFNSNT [K73R;K335R;K347R;K389R] | decreasing interaction |
